B1: 3C6 hu-5 (Fc fusion)
chain: EVQLVESGGGLIQPGGSLRLSCAASGNIGSIRHMGWHRQAPGKERELVSTITTVGTTYYANFVKGRFTISRDNSKNTLYLQMNSLRAEDTAVYYCRATAHPTDYWGQGTLVTVSSGGGGSGGGGSDKTHTCPPCPAPEAAGAPSVFLFPPKPKDTLMISRTPEVTCVVVDVSHEDPEVKFNWYVDGVEVHNAKTKPREEQYNSTYRVVSVLTVLHQDWLNGKEYKCAVSNKALPAPIEKTISKAKGQPREPQVYTLPPSRDELTKNQVSLTCLVKGFYPSDIAVEWESNGQPENNYKTTPPVLDSDGSFFLYSKLTVDKSRWQQGNVFSCSVMHEALHNHYTQKSLSLSP
notes: Humanized VHH-Fc antibody: VHH, linker, human IgG1 Fc
B2: 3C6 hu-1 (Fc fusion)
chain: B1 chain with H37V, E44G, R45L, L47W
notes: as for B1
B3: 3C6 hu-8 (Fc fusion)
chain: B1 chain with H37V, S49A
notes: as for B1
B4: 3C6 hu-6 (Fc fusion)
chain: B1 chain with S49A
notes: as for B1
B5: 3C6 hu-4 (Fc fusion)
chain: B1 chain with E44G
notes: as for B1
B6: 3C6 hu-3 (Fc fusion)
chain: B1 chain with R45L
notes: as for B1
B7: 3C6 hu-7 (Fc fusion)
chain: B1 chain with L47W, S49A
notes: as for B1
B8: 3C6 hu-2 (Fc fusion)
chain: B1 chain with E44G, R45L
notes: as for B1
B9: alpaca nanobody 3C6 (VHH)
VHH: EVQLVESGGGLVQAGESLRLSCAVSGNIGSIRHMGWHRQDPGKERELVATITTVGTTYYANFVKGRFTISRDNAKNTVYLQMNSLKPEDTGVYYCRATAHPTDYWGQGTQVTVSS
notes: also called anti-MSLN nanobody 3C6
B10: 4A7 hu-5 (Fc fusion)
chain: EVQLLESGGGLVQPGGSLRLSCAASGRTFSTNVMGWFRQAPGKGLEFVSAISRAGSTYSADSVKGRFTISRDNSKNTLYLQMNSLRAEDTAVYYCAAGSSPTAIFGKSGMDYWGQGTQVTVSSGGGGSGGGGSDKTHTCPPCPAPEAAGAPSVFLFPPKPKDTLMISRTPEVTCVVVDVSHEDPEVKFNWYVDGVEVHNAKTKPREEQYNSTYRVVSVLTVLHQDWLNGKEYKCAVSNKALPAPIEKTISKAKGQPREPQVYTLPPSRDELTKNQVSLTCLVKGFYPSDIAVEWESNGQPENNYKTTPPVLDSDGSFFLYSKLTVDKSRWQQGNVFSCSVMHEALHNHYTQKSLSLSP
notes: Humanized VHH-Fc antibody
B11: 4A7 hu-13 (Fc fusion)
chain: B10 chain with T31S, N32Y
notes: Humanized VHH-Fc antibody
B12: 4A7 hu-9 (Fc fusion)
chain: B10 chain with T31S, N32Y, G35S, F37V, F47W, S59Y
notes: Humanized VHH-Fc antibody
B13: 4A7 hu-16 (Fc fusion)
chain: B10 chain with T31S, N32Y, G44E, L45R
notes: Humanized VHH-Fc antibody
B14: 4A7 hu-7 (Fc fusion)
chain: B10 chain with L45R
notes: Humanized VHH-Fc antibody
B15: 4A7 hu-12 (Fc fusion)
chain: B10 chain with T31S, N32Y, F37V
notes: Humanized VHH-Fc antibody
B16: 4A7 hu-2 (Fc fusion)
chain: B10 chain with F37V, F47W
notes: Humanized VHH-Fc antibody
B17: 4A7 hu-3 (Fc fusion)
chain: B10 chain with F47W
notes: Humanized VHH-Fc antibody
B18: 4A7 hu-6 (Fc fusion)
chain: B10 chain with P14A
notes: Humanized VHH-Fc antibody
B19: 4A7 hu-4 (Fc fusion)
chain: B10 chain with F37V
notes: Humanized VHH-Fc antibody
B20: 4A7 hu-11 (Fc fusion)
chain: B10 chain with T31S, N32Y, F47W
notes: Humanized VHH-Fc antibody
B21: 4A7 hu-1 (Fc fusion)
chain: B10 chain with G35S, F37V, F47W, S59Y
notes: Humanized VHH-Fc antibody
B22: 4A7 hu-10 (Fc fusion)
chain: B10 chain with T31S, N32Y, F37V, F47W
notes: Humanized VHH-Fc antibody
B23: 4A7 hu-8 (Fc fusion)
chain: B10 chain with G44E, L45R
notes: Humanized VHH-Fc antibody
B24: 4A7 hu-14 (Fc fusion)
chain: B10 chain with P14A, T31S, N32Y
notes: Humanized VHH-Fc antibody
B25: 4A7 hu-15 (Fc fusion)
chain: B10 chain with T31S, N32Y, L45R
notes: Humanized VHH-Fc antibody

Residue numbers refer to the chain shown, from its start.

The target of the first test is T1, hFc-tagged human MSLN recombinant protein (huMSLN-hFc, Kactus Biosystems, MSL-HM280) (human, UniProt Q13421 296-580).
T1 construct: Bought protein; also called huMSLN-Fc; human MSLN-Fc
T1 sequence (Q13421 other isoform, or with tags, fused parts or gaps): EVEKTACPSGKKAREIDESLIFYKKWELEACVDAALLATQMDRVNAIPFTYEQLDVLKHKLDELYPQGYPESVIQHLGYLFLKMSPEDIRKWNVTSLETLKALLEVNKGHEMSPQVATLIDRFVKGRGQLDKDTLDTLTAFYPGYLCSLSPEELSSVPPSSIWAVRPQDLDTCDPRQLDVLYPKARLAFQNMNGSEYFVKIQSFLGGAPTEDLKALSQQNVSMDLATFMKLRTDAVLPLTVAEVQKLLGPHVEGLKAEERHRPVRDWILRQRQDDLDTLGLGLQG
Description: Carterra HC30M chip, antibody captured via anti-DYKDDDDK, antigen as analyte. On the procedure: (§1) The anti-[…] antibody was bound to the HC30M chip via amino coupling, and then 2 μg/mL of MSLN single-domain antibody was captured. After the baseline was stabilized, gradient diluted huMSLN-Fc (Kactus Biosystems, MSL-HM280) and cynoMSLN-Fc (Kactus Biosystems, MSL-CM280) (starting from 100 nM, gradient dilution) were flowed through the chip from low to high concentrations, respectively, with a binding time of 8 minutes and a dissociation time of 20 minutes. Kinetic constants were obtained by fitting with Carteria software.
For orientation: Kd means the constant that tells how readily two partners part at equilibrium. The term koff denotes the first-order rate constant of dissociation. In general, kon refers to the rate constant with which the complex forms. Take B1: the Kd came to 2.26 nM, the off-rate constant (koff) stood at 0.00175 s⁻¹ and the kon was 772000 M⁻¹ s⁻¹.

Turning to B2, the Kd worked out at 2.69 nM, the koff was found to be 0.00187 s⁻¹ and the kon was 695000 M⁻¹ s⁻¹.

With B3, the Kd amounted to 12 nM, the koff stood at 0.0315 s⁻¹ and the kon is 2.63e+06 M⁻¹ s⁻¹.

Consider B4, for which the Kd was 2.25 nM, the koff amounted to 0.00185 s⁻¹ and the kon was 820000 M⁻¹ s⁻¹.

In the case of B5, the Kd turned out to be 4.89 nM, the off-rate (koff) worked out at 0.00471 s⁻¹ and the kon worked out at 963000 M⁻¹ s⁻¹.

B6: the Kd stood at 3.56 nM, the koff was 0.00218 s⁻¹ and the kon was determined as 611000 M⁻¹ s⁻¹.

For the molecule B7, the Kd worked out at 4.94 nM, the koff was 0.00277 s⁻¹ and the kon was 560000 M⁻¹ s⁻¹.

For B8, the Kd was determined as 13.5 nM, the koff was found to be 0.00732 s⁻¹ and the kon was 540000 M⁻¹ s⁻¹.

Take B9: the Kd was 5.66 nM, the koff worked out at 0.000304 s⁻¹ and the kon came out at 53600 M⁻¹ s⁻¹.

A further test deals with T2, cynoMSLN-Fc (Kactus Biosystems, MSL-CM280) (cyno (monkey)).
T2 construct: Bought protein; also called monkey MSLN
Described as above. The procedure:
as §1
The molecule B1 came in with a Kd of 1.66 nM, a koff of 0.000914 s⁻¹ and a kon of 551000 M⁻¹ s⁻¹.

Regarding B2, the Kd came to 3.67 nM, the off-rate constant (koff) stood at 0.00151 s⁻¹ and the kon is 412000 M⁻¹ s⁻¹.

Consider B3, for which the Kd was determined as 17.3 nM, the koff was found to be 0.0165 s⁻¹ and the kon amounted to 956000 M⁻¹ s⁻¹.

In turn, B4 registered a Kd of 1.78 nM, an off-rate constant (koff) of 0.00115 s⁻¹ and a kon of 644000 M⁻¹ s⁻¹.

The molecule B5 showed a Kd of 5.58 nM, an off-rate (koff) of 0.00285 s⁻¹ and a kon of 511000 M⁻¹ s⁻¹.

Consider B6, for which the Kd was 2.74 nM, the dissociation rate constant (koff) came to 0.00125 s⁻¹ and the association rate constant (kon) turned out to be 455000 M⁻¹ s⁻¹.

On to B7, for which binding was characterised by a dissociation constant (Kd) of 4.79 nM, the koff came out at 0.00244 s⁻¹ and the kon was 510000 M⁻¹ s⁻¹.

As to B8, the affinity, expressed as Kd, was 11.4 nM; the koff was determined as 0.00426 s⁻¹; the kon was found to be 374000 M⁻¹ s⁻¹.

As to B9, the Kd is 1.04 nM, the off-rate (koff) came out at 4.69e-05 s⁻¹ and the kon was 45300 M⁻¹ s⁻¹.

In another test the target is T3, mouse PD-L1 protein (ACRO, PD1-M5251) (mouse, UniProt Q9EP73 19-238).
T3 construct: Bought protein; also called Mouse PDL1-Fc
T3 sequence (Q9EP73 19-238): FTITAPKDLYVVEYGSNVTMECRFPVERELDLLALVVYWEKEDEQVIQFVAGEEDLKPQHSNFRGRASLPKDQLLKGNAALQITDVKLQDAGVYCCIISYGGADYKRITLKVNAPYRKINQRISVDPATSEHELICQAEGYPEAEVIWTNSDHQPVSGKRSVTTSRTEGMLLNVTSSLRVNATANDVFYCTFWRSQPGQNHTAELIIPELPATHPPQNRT
Briefly: Carterra HC30M chip, antibody captured via anti-DYKDDDDK, PD-L1 as analyte. The procedure:
(§2) The anti-[…] antibody was bound to the HC30M chip via amino coupling, then 2 μg/mL of humanized PD-L1 single-domain antibody was captured. […] Kinetic constants were obtained by fitting with Carteria software.
In turn, B10 came in with a Kd of 9.72 nM.

In turn, B11 returned a Kd of 10.7 nM.

The molecule B12 had a Kd of 146 nM.

Molecule B13 displayed a Kd of 9.82 nM.

Molecule B14 showed a Kd of 9.76 nM.

Molecule B15 came in with a Kd of 19.5 nM.

In turn, B16 returned a Kd of 408 nM.

Molecule B17 registered a Kd of 122 nM.

B18 yielded a Kd of 9.59 nM.

With B19, the Kd was 21 nM.

The molecule B20 yielded a dissociation constant (Kd) of 154 nM.

Take B21: the affinity, expressed as Kd, was 143 nM.

B22 yielded a Kd of 197 nM.

B23 registered a Kd of 10.4 nM.

In turn, B24 displayed a Kd of 9.7 nM.

In the case of B25, binding was put at a Kd of 9.97 nM.

The next test deals with T4, monkey PD-L1 protein (Kactus Biosystems, PDL-CM210) (monkey).
T4 construct: Bought protein; also called Monkey PDL1-Fc
The description is as above. The procedure: as §2
In turn, B10 came in with a Kd of 94.3 nM.

In turn, B11 came in with a Kd of 72.8 nM.

B12 returned a Kd of 609 nM.

For the molecule B13, binding was characterised by a dissociation constant (Kd) of 75.3 nM.

As to B14, the Kd is 61.7 nM.

B15 registered a Kd of 94.5 nM.

The molecule B16 gave a Kd of 367 nM.

Molecule B17 gave a Kd of 599 nM.

B18 registered a Kd of 99 nM.

B19 came in with a Kd of 112 nM.

Take B20: the affinity, expressed as Kd, was 828 nM.

The molecule B21 showed a Kd of 1320 nM.

The molecule B22 displayed a Kd of 622 nM.

Take B23: the Kd is 57.5 nM.

On to B24, for which the affinity, expressed as Kd, was 76.5 nM.

The molecule B25 showed a Kd of 60.7 nM.

For the next test, the target named is T5, human PD-L1 protein (ACRO, PD1-H5258) (human, UniProt Q9NZQ7 19-238).
T5 construct: Bought protein; also called Human PDL1-Fc
T5 sequence (Q9NZQ7 19-238): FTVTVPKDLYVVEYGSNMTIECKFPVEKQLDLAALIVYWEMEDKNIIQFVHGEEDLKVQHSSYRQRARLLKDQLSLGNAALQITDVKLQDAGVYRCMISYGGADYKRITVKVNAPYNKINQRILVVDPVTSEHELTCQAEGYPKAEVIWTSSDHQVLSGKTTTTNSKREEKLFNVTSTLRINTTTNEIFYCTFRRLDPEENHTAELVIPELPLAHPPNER
Described as above. The procedure:
as §2
The molecule B10 showed a Kd of 141 nM.

In turn, B11 gave a Kd of 58.7 nM.

As to B12, the Kd is 652 nM.

With B13, the Kd worked out at 45.1 nM.

Consider B14, for which the Kd came to 127 nM.

As to B15, the Kd turned out to be 79 nM.

B17 displayed a dissociation constant (Kd) of 1630 nM.

The molecule B18 yielded a Kd of 136 nM.

In the case of B19, binding was characterised by a dissociation constant (Kd) of 175 nM.

As for B20, binding was characterised by a dissociation constant (Kd) of 796 nM.

Turning to B22, the Kd was 805 nM.

On to B23, for which the affinity, expressed as Kd, was 92.7 nM.

The molecule B24 gave a Kd of 60.9 nM.

B25 returned a Kd of 54.9 nM.

The values are drawn from US20260201058A1 (SICHUAN HUIYU PHARMACEUTICAL, published 2026).
